From patent US6323001A, “Increasing the trehalose content of organisms by transforming them with combinations of the structural genes for trehalose synthase” (BTG International Ltd., priority 1994, dated 2001)

Experiments:
Assay type in all cases: biochemical, baker's yeast
[1] = target: T1, Tre6Pase activity of intact trehalose synthase (Saccharomyces cerevisiae, UniProt P31688); experiment: Tre6Pase assay of intact trehalose synthase
T1 construct: Intact trehalose synthase was purified from commercial baker's yeast; made in house; host or cells: commercial baker's yeast (native enzyme purified, not recombinant)
T1 sequence (P31688 1-896): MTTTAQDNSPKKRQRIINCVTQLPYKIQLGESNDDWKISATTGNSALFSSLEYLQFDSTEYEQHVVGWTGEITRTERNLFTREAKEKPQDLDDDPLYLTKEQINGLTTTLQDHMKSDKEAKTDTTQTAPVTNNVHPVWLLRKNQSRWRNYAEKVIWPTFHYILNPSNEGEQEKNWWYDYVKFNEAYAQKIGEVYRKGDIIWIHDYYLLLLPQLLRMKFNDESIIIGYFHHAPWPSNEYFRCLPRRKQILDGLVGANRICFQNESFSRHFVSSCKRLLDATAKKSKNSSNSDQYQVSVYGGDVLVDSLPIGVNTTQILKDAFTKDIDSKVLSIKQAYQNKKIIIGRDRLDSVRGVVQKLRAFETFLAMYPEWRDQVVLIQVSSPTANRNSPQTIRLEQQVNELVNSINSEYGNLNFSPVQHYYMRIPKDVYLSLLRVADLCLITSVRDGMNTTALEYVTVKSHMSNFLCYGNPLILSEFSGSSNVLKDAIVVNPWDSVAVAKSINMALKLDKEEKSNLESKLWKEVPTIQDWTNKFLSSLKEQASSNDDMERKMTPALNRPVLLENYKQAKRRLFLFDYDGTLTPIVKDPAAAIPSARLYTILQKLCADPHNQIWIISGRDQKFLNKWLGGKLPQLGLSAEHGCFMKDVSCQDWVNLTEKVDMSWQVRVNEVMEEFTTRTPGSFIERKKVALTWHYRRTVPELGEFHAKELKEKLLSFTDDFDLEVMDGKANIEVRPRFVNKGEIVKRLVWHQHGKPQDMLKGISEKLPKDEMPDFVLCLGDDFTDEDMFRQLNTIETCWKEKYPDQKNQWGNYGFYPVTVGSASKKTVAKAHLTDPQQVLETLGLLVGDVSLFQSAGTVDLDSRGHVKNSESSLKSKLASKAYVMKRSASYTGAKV
T1 sequence (Q00764 1-495 partner): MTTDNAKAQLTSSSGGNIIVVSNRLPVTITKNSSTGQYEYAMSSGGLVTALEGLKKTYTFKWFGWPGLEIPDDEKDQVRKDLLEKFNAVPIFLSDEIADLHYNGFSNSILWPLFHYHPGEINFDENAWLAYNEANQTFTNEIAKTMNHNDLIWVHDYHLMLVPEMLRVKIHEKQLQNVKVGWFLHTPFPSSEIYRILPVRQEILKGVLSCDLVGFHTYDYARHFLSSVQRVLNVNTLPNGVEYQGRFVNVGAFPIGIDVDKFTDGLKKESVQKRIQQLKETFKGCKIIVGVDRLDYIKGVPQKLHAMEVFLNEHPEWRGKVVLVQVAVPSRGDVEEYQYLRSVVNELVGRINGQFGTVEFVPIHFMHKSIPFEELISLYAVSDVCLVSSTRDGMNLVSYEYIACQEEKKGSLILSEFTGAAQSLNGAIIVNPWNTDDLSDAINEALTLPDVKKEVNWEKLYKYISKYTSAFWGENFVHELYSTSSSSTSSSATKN
T1 sequence (P38427 1-1098 partner): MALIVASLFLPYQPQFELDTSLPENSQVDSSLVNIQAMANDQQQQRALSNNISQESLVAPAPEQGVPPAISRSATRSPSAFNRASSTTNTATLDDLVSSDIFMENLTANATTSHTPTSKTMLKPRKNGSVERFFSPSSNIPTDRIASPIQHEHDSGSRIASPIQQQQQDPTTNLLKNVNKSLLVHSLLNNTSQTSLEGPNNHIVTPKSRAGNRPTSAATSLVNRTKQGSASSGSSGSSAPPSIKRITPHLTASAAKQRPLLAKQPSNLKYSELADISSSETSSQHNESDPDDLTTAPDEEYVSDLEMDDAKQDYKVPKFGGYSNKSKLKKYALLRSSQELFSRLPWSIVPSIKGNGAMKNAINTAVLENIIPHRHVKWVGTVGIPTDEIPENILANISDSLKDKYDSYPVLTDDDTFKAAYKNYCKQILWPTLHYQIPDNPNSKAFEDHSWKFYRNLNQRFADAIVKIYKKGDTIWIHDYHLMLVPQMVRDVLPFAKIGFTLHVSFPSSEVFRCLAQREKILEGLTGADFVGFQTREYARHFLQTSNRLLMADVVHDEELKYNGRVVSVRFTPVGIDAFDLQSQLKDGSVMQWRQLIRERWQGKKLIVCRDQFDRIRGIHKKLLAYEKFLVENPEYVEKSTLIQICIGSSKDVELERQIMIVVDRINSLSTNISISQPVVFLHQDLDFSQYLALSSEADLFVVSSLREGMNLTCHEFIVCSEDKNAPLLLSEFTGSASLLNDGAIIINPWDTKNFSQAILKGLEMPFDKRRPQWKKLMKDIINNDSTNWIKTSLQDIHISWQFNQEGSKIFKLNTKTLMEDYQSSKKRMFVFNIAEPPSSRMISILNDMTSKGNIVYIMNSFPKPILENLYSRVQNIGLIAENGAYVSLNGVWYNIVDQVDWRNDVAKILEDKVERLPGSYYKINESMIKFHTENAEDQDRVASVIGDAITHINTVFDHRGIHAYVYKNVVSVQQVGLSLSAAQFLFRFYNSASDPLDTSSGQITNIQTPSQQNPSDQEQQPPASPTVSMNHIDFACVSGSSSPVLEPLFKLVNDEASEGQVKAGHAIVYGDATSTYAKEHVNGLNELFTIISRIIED
Description: (§1) With microbial materials, Tre6Pase and Tre6P synthase standard assays and other kinetic measurements were made as described by Londesborough & Vuorio [(1991) loc. cit.] except that the standard Tre6P synthase assay mixture contained 5 mM F6P unless stated otherwise.
(§2) In one experiment intact trehalose synthase (0.28 Tre6P synthase units, ≈9.4 μg) was incubated with or without 0.5 μg of trypsin at 30° C. in 250 μl of 13 mM HEPES pH 7.0 containing 1 mM MgCl2, 0.5 mM EDTA, 0.5 mM dithiothreitol, 0.2 M NaCl and 0.5 mM benzamidine. Its Tre6P synthase activity was determined at intervals using standard assay mixtures (containing 5 mM F6P) containing no or 4 mM K phosphate pH 6.8, and samples were prepared for SDS-PAGE analysis immediately before and 48 min after addition of the trypsin.
Intact trehalose synthase was prepared as in Example 1. Kinetic assays were done at 30° C. as described in General Methods and Materials.

[2] = target: T2, Tre6Pase activity of the 99 kDa polypeptide (Saccharomyces cerevisiae, UniProt P31688); experiment: Tre6Pase activity of isolated 99 kDa polypeptide
T2 construct: the 99 kDa polypeptide isolated from intact trehalose synthase is a specific trehalose-6-phosphatase; made in house; host or cells: commercial baker's yeast (native; isolated from intact trehalose synthase on phosphocellulose)
Description: Intact trehalose synthase has also been fractionated on phosphocellulose in the absence of Triton, and with elution by a simple linear gradient from 0 to 0.6 M NaCl. […] This activity differed from the Tre6Pase activity of intact trehalose synthase in that the ratio of activities at 25 mM phosphate and 50 mM Hepes was between 1.5 and 3 in different experiments (cf, this ratio is 5 to 6 for intact trehalose synthase). Furthermore, during storage of the isolated 99 kDa polypeptide at 0° C., the Tre6Pase activity at 25 mM phosphate decreased and that at 50 mM Hepes increased, until the ratio was about 0.7 after 7 weeks.

[3] = target: T3, Tre6P synthase activity of intact trehalose synthase (Saccharomyces cerevisiae, UniProt Q00764); experiment: Tre6P synthase assay of intact trehalose synthase; settings: 0.5 μg trypsin, 30° C., first 10 min
T3 construct: Intact trehalose synthase was purified from commercial baker's yeast; made in house; host or cells: commercial baker's yeast (native enzyme purified, not recombinant)
Description: as §1
as §2, with “Removal of the N-terminal 325 or so amino acids from the 123 kDa long chain of intact trehalose synthase by treatment with trypsin in vitro produces an enzyme with catalytic properties like those of the truncated enzyme purified by Londesborough & Vuorio [(1991) loc. cit.]. In” for “In”
Truncated trehalose synthase was prepared as described by Londesborough & Vuorio [(1991) loc. cit.] and contained the 57 kDa short chain and 86 and 93 kDa fragments of the long chain. Intact trehalose synthase was prepared as in Example 1. Kinetic assays were done at 30° C. as described in General Methods and Materials.

[4] = target: T3, Tre6P synthase activity of intact trehalose synthase; experiment: Tre6P synthase assay of intact trehalose synthase; settings: 11 μg trypsin, 25° C., after first 30 min (26% before)

Compound	rate of hydrolysis relative to 0.5 mM trehalose-6-phosphate ([1]; 1 mM G6P, phosphate or Hepes buffer)	hydrolysis by isolated 99 kDa polypeptide [2]	loss of Tre6Pase activity ([1]; limited treatment with trypsin, 30° C.)	increase in Tre6P synthase activity measured at 4 mM phosphate [3]	Tre6P synthase activity in absence of F6P and presence of 10 mM phosphate, % of standard activity [4]
O=P(O)(O)OC[C@H]1OC(O)[C@H](O)[C@@H](O)[C@@H]1O (some centres unmarked) [Transformant G6P, Glucose 6-phosphate]	less than 1%	not hydrolyzed			
trypsin			about 50%	4 fold	73%
